This note sets out measurements from the supplement of paper PMC12455559.

Data set [1] in a line: melting temperature (DSF); higher = more thermostable. Summed up: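 Candidate enzymes were expressed in E. coli C41(DE3), purified on nickel beads and released by SUMO protease cleavage. For differential scanning fluorimetry, 45 μL enzyme (0 to 0.3 mg/mL) was mixed with 5 μL 5X Sypro Orange in sealed PCR plates on a Bio-Rad CFX96 instrument. Fluorescence was read from 25 °C in steps of 0.3 °C per cycle (ramp 0.3 °C/s) for 250 cycles. The read-out is melting temperature.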

Data set [2] in a line: purified protein yield per well (BCA); higher = higher soluble expression. Summed up:
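Each candidate enzyme was grown in E. coli C41(DE3) in a 2 mL autoinduction culture (100 µg/mL kanamycin; 2 h at 37 °C, then 40 h at 18 °C) and purified robotically via Ni-charged magnetic beads with SUMO protease cleavage. Purified protein yield per well was assessed using the Pierce Rapid Gold BCA kit. Readings below 25 ug (0.1 mg/mL) are beneath the detection threshold.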

Data set [3] in a line: PET hydrolysis, aromatic products released after 48 h (umol product/mg enzyme); higher = more PET depolymerization activity. Summed up: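 PET hydrolysis activity was taken as the aromatic product in the supernatant and expressed per mg enzyme. This product was measured by absorbance at 260 and 280 nm against buffer blanks. Each reaction held 5 μg (50 μL) of tagless, SUMO-cleaved candidate enzyme purified on nickel beads, plus 3.5 mg amorphous PET film or crystalline PET powder in 450 μL buffer: 50 mM NaCitrate (pH 4.5, 5.5), 50 mM NaPhosphate (pH 6.5, 7.5) or glycine (pH 8.5). Plates were sealed and left 48 h at 40 or 60 °C without shaking.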

Setting [4] is: substrate: cryPow, 40 °C, pH 5.5.
Where [5] appears, read: substrate: cryPow, 40 °C, pH 6.5.
Where [6] appears, read: substrate: cryPow, 40 °C, pH 7.5.
Where [7] appears, read: substrate: cryPow, 40 °C, pH 8.5.
Where [8] appears, read: substrate: cryPow, 60 °C, pH 5.5.
[9] abbreviates: substrate: cryPow, 60 °C, pH 6.5.
[10] abbreviates: substrate: cryPow, 60 °C, pH 7.5.
Where [11] appears, read: substrate: cryPow, 60 °C, pH 8.5.
The mark [12] stands for this setting: substrate: aFilm, 40 °C, pH 5.5.
Where [13] appears, read: substrate: aFilm, 40 °C, pH 6.5.
Setting [14] is: substrate: aFilm, 40 °C, pH 7.5.
Setting [15] is: substrate: aFilm, 60 °C, pH 5.5.
The mark [16] stands for this setting: substrate: aFilm, 60 °C, pH 6.5.
Where [17] appears, read: substrate: aFilm, 60 °C, pH 7.5.
Setting [18] is: substrate: cryPow, 40 °C, pH 4.5.

± gives the standard deviation of the averaged measurements.

Sequence “GTTASATTVSGTQAAAAQEYRRGPDPTAQSVEAATGPFAIQQTSVPAGNGFGGGTIYYPTDTSQGTFGAIAISPGWTEDQSAIAWLGPKLASNGFVVMTINNNNAFLDFPDARGTQLLAALDSLTGQSPVAGRIDKNRLAVAGHSMGGGGALRAAATRPEIQAAIPLTPWHLNQDWSSVRVPTLIVGGETDIIASVGAHSEPFYESLTNAPERAYLEMEGQGHFVTNSANPTVGRYVLSWLKRYVDNDTRYEQFLCPAPAPSSVISEYRDSCPGS [DP018]” came in with a melting temperature in data set [1] of 66.1 C. In data set [2], the “purified protein yield per well” value worked out at 84 µg. For the same sequence, the PET hydrolysis in data set [3] (setting [4]), in data set [3] (setting [5]), in data set [3] (setting [6]), in data set [3] (setting [7]), in data set [3] (setting [8]) and in data set [3] (setting [9]) was less than 3 in each case. In addition, the PET hydrolysis in data set [3] (setting [10]) and in data set [3] (setting [11]) was less than 3 each time.
For the sequence “ATGPSSPCSNCTRGPDPTVASLKSATGPYTTAKFSVSGYLKGFGDSTVYYPTNASGKMGAIAVIPGYVSYEDSIKWWGPRLASHGFVVMTMNTSTIYDQPDSRATQLSKALDYMIAQSGSSSSPIYNKVDSTRLGVIGWSMGGGGTLKLSTQRSINAIIPQAPYYAGSNSFNTIKTPALILACGADAVAPVGVHASPFYNRIPGTTPKAYLEIYGGSHFCANSGYPNEDLLGMYGIAWMKRFIDFDSRYSKFLCGPNHTADLNISEYRQNCNY [DP078]”, the melting temperature in data set [1] was 59.5 C. In addition, in data set [2], the “purified protein yield per well” value stood at 29 µg. Moreover, the PET hydrolysis is 9 in data set [3] (setting [4]), 47 in data set [3] (setting [5]), 60 in data set [3] (setting [6]) and 66 in data set [3] (setting [7]).
In data set [1], “MLTITVATGSASAADNPYQRGPDPTRTSVTAVNGPFANTSVSVPTGYGFNGGRIYYPTDTSQGTFGAIAISPGYTALFSAELAWMGPWLASHGFVVIGIETNSRNDFDTARGTQLLAALDYLTQQSPVRDRVDPNRLAVAGHSMGGGGALSAATRRSSLKAVVGIAPYSPSSNLANDRVPTMIFAGQADTVVTPSYATGLYNSLPTTTESAYLEVAGADHGFMVGRSNPVMVRTMLPFVKMFIDNDARYSQFLCPLLDSSGVVTYRSTCPLLPSTPPTSTPTPTDPPTPTPTPTVPPGSASEIVGTQSSRCIDVPNASRNNGTRVQLYDCNKQTNQA [ESM121]” returned a melting temperature of 58.9 C. Moreover, the “purified protein yield per well” value in data set [2] was determined as 268 µg. Also, the PET hydrolysis is less than 3 in data set [3] (substrate: aFilm, 40 °C, pH 4.5); less than 3 in data set [3] (setting [12]); less than 3 in data set [3] (setting [13]); less than 3 in data set [3] (setting [14]); less than 3 in data set [3] (substrate: aFilm, 60 °C, pH 4.5); less than 3 in data set [3] (setting [15]). The PET hydrolysis in data set [3] (setting [16]) was less than 3; in data set [3] (setting [17]) it was less than 3; in data set [3] (setting [18]), 5.5 ± 0.71; in data set [3] (setting [4]), 15 ± 1.4; in data set [3] (setting [5]), 11; in data set [3] (setting [6]), 2.5 ± 3.5. For the same sequence, the PET hydrolysis in data set [3] (substrate: cryPow, 60 °C, pH 4.5) was less than 3; in data set [3] (setting [8]), less than 3; in data set [3] (setting [9]), less than 3; in data set [3] (setting [10]) it was less than 3.
“ADNPYQRGPDPTPQSISAPTGPFATASVTVPRQGNFGGGVIYYPTDTSQGTFGAVAISPGLNGTWPGIAWLGPRLSSQGFVVFGIDTLGLSDSTASRGSQLLAALDYLTQTSSVRTRVDSSRLAVAGHSMGGGGAFEAALRRPALKAAIPNAPFFPGSASNVRVPTLITAMQNDSLVGQNRNAYNGIPAGVEKAYVELAGAGHNQIGQPTTAIARNWIPWLKIFVDSDARYHQFLCPTTDMSGLSQYLNTCPLISTTPPTSSPSAQPTTPGPTGPPPGGACAATYRTVNSWSDGYQGEMTVQAGSSAINGWTVRWTMSGGQTISQVWNGTLVAGSGAAAVRNVAYNGSLAAGASTTFGFISSGTPSATSITCGSP [ESM081]” displayed a melting temperature in data set [1] of 68.2 C. For the same sequence, in data set [2], the “purified protein yield per well” value is 182 µg. The PET hydrolysis in data set [3] (setting [18]) was 4; in data set [3] (setting [4]), 17; in data set [3] (setting [5]) it was 45; in data set [3] (setting [6]), 82.
For the sequence “AGFERGPDPSTSTLDAARGPFAVAEERVYSWRASGFGGGDIYYPTTTSEGTFGVVAVAPGYTAGRSSMAWLASRIASHGFVVINIDTLTRSDQPASRGRQLLAALDHVTSSSGVRDRVDASRQAVVGHSMGGGGALEAASSRPALQAAVPLTPWNLTKRWSSLQVPTFIVGAENDSVASVRTHAEPFYESLPAALPKAYLELNNASHFAPNTTNSTIGRYTVAWLKRYVDDDLRYSQFLCPPPPPSSAIEEFRATC [DP087]”, the melting temperature in data set [1] came to 44.2 C. For the same sequence, the “purified protein yield per well” value in data set [2] is 208 µg. The PET hydrolysis in data set [3] (setting [12]) was less than 3; in data set [3] (setting [13]), less than 3; in data set [3] (setting [14]) it was less than 3; in data set [3] (substrate: aFilm, 40 °C, pH 8.5) it was less than 3; in data set [3] (setting [15]) it was less than 3; in data set [3] (setting [16]), less than 3. The PET hydrolysis in data set [3] (setting [17]) was less than 3; in data set [3] (substrate: aFilm, 60 °C, pH 8.5), less than 3; in data set [3] (setting [4]), less than 3; in data set [3] (setting [5]) it was less than 3; in data set [3] (setting [6]), less than 3; in data set [3] (setting [7]), less than 3. The PET hydrolysis in data set [3] (setting [8]), in data set [3] (setting [9]), in data set [3] (setting [10]) and in data set [3] (setting [11]) was less than 3 each time.
In data set [1], “APNAAIAAAPRVAPAANPYERGPAPTEESVKAEKGPFDIAQMPVPGGAGVFGGGTIWYPKDEAGPFGAVVVSPGFMTLEPLIQWYGRTLASHGFVVMTMATITPIDPPFSRGDELRSALDYLVTKSTVKDKIDPTRTALMGHSMGGGGTLDAASKLPDLKAAIPLAPWNLDYAPPAKIKAPTLIIGADNDPIAPTAAFADPFYAALTTQNRAYLKLKNAGHTFSFLGYNPTITKYTVSWLKRFVDNDTRYDQFLCPIPAASDTVAAYQGTCPLT [DP091]” came in with a melting temperature of 53.8 C. For the same sequence, the “purified protein yield per well” value in data set [2] is 32 µg. Besides, the PET hydrolysis in data set [3] (setting [4]), in data set [3] (setting [5]), in data set [3] (setting [6]) and in data set [3] (setting [7]) was less than 3 each time.
